# In US20120237507A1:
# Molecular target: c-Met on A549 cells (UniProt P08581)
# Assay: half-maximal binding, flow cytometry on A549 cells
# Chain of UniProt P08581 (P08581 25-1390 limits assumed): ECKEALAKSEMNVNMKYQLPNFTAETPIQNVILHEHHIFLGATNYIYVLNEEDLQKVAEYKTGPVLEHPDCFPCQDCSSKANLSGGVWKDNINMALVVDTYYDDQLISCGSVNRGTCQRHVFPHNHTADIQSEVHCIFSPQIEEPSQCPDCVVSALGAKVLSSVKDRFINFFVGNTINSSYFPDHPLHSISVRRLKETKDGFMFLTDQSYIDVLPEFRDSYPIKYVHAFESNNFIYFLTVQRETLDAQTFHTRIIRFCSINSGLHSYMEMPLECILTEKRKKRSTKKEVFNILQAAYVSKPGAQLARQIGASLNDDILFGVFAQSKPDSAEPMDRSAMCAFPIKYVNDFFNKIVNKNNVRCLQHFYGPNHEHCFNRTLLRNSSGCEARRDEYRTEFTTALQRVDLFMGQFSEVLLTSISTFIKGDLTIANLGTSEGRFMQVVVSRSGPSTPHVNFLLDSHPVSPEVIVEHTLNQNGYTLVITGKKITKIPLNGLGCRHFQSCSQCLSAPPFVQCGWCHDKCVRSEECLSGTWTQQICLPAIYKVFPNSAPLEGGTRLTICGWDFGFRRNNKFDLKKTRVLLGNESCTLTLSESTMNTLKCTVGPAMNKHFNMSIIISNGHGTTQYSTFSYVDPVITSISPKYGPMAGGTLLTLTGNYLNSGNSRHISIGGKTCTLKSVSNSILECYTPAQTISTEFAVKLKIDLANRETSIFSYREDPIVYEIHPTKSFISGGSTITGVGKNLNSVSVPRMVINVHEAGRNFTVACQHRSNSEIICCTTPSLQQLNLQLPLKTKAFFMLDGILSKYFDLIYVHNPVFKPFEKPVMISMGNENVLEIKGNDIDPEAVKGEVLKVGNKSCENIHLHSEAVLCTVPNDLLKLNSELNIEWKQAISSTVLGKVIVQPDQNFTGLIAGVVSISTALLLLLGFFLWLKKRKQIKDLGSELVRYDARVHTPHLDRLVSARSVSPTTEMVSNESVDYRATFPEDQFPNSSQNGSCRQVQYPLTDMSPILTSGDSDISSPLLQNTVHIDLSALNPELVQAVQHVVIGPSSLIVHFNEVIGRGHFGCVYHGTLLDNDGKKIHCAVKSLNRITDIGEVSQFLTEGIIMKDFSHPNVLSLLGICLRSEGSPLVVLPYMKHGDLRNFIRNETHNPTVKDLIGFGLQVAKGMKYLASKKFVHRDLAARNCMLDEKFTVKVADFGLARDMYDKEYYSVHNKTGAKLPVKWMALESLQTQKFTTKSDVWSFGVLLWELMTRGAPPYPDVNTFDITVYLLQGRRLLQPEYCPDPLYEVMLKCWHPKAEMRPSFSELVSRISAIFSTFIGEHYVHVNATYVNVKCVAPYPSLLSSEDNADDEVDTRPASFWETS
substance,measurement,value
MetMAb/OA-5D5 (Genentech) (antibody),EC50,1.45 nM
